Source: patent US20240132599A1 (GAMMADELTA THERAPEUTICS, published 2024)

How the values were obtained:
[1] = biological target: T1, Vδ1 TCR on human Vδ1-positive γδ T cells (human, UniProt A0A1B0GX56 22-115); experiment: flow cytometry binding to γδ T cells, Donor 2 (TS164); column head printed IC50 (nM), the text calls it EC50 of binding; same value in the table of FIG. 11C
T1 construct: also called Vδ1 γδ T-cells; cell surface Vδ1 TCR
Procedure: (§1) (FIGS. 11A-11B) The level of binding by the V61 mAbs to two γδ T cell donors, ATS006 (FIG. 11A) and TS164 (FIG. 11B). γδ T cells were stained with varying concentrations of Vδ1 mAbs, followed by a fluorescent anti-human IgG detection antibody (xxx). All incubation steps were performed at 4° C. and mAb binding was determined using flow cytometry to measure the median level of fluorescence. Logarithmic four parameter dose-response curves were fitted using GraphPad Prism 9.
(§2) A range of target cells were assayed to determine the specificity and affinity of Vδ1 mAb binding. This included expanded skin-derived Vδ1 γδ T-cells, HEK293T cells, Raji cells, and multiple leukocyte subsets within human primary blood mononuclear cells. Adherent or semi-adherent cells (skin-derived Vδ1 γδ T-cells, HEK293T) were detached from tissue culture flask and resuspended in PBS. Similarly, non-adherent cell types (Raji, PBMC), were harvested and resuspended in PBS. Cells were seeded at a final density of 100,000 cells per well in v-bottom 96-well plates. Cells underwent centrifugation and the cell pellets were resuspended in FcR blocking reagent according to the manufacturer's instructions, and incubated for 20 minutes at 4C prior to a further wash. […] To determine the quantity of mAb bound to the cell surface, the cells were then stained with a murine anti-human IgG secondary antibody, conjugated to APC (product code . . . , dilution: 1:100). For Vδ1 γδ T-cells, HEK293T and Raji, the cells were also stained solely with a viability dye.

[2] = biological target: T1, Vδ1 TCR on human Vδ1-positive γδ T cells; experiment: flow cytometry binding to γδ T cells, Donor 1 (ATS006); column head printed IC50 (nM), the text calls it EC50 of binding; same value in the table of FIG. 11C
Procedure: as §1, §2

[3] = biological target: T2, L1 (DV1-GV4), recombinant soluble human Vδ1/Vγ4 γδ TCR heterodimer (human); experiment: SPR (Reichert 4SPR), antibody on Protein A chip, human Vδ1 antigen as analyte, 1:1 fit, mean of two replicates (Avg KD)
T2 construct: Biotinylated in the DELFIA ranking assay; also called human TRDV1; human Vδ1 antigen
T2 sequence (main, as listed by the source): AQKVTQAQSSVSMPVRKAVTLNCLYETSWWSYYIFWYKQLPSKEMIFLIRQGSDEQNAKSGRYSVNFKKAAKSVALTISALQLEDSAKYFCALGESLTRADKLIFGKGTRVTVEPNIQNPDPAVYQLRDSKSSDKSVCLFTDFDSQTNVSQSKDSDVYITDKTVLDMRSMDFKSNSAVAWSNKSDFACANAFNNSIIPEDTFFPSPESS
Source text: The binding affinity of the antibodies to target (i.e. the Vδ1 chain of a γ TCR) is established by SPR analysis using a Reichert 4SPR instrument (Reichert Technologies).
The binding interaction of Vδ1 and the affinity-matured mAbs were modelled according to Langmuir 1:1 binding.

[4] = biological target: T3, human EGFR, recombinant protein (human, UniProt P00533 25-645); experiment: SPR
T3 construct: Bought protein; also called human EGFR antigen

[5] = biological target: T1, Vδ1 TCR on human Vδ1-positive γδ T cells; experiment: flow cytometry on skin-derived Vδ1+ cells, 20 min at 4 C, anti-human Fc secondary
Procedure: Cells were washed and stained with an anti-human Fc secondary antibody (Jackson Immunoresearch) and a viability dye for dead cells (eFlour 780, Invitrogen) for 20 minutes at 4° C. The cells were washed in FACS buffer and resuspended in Cell Fix (BD sciences) before analysis on a MACSQuant Analyser 10 flow cytometer (Miltenyi).

[6] = biological target: T2, L1 (DV1-GV4), recombinant soluble human …; experiment: SPR (Reichert 4SPR): antibody on a Protein A chip, human Vδ1 antigen flowed; column 'Affinity to Vδ1 (nM)'
Procedure: Human Vδ1 antigen was flown over the cell at a 1:3 dilution series with top concentrations of 50 nM with the following parameters: 180s association, 900s dissociation, flow rate 25 μL/min, running buffer PBS+0.05% Tween-20. The chip surface was regenerated using 20 mM phosphoric acid following each injection. All experiments were performed at room temperature. Steady state fitting was determined according to Langmuir 1:1 binding using TraceDrawer software (Reichert Technologies.

[7] = biological target: T2, L1 (DV1-GV4), recombinant soluble human …; experiment: SPR

T1 sequence (A0A1B0GX56 22-115 limits assumed, stated change not applied): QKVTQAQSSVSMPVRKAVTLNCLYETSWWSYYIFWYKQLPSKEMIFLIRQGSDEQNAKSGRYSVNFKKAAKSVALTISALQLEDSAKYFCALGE

Binder	EC50 [1] [nM]	EC50 [2] [nM]	Kd [3] [nM]	Kd [4] [nM]	Kd [7] [nM]	also measured
ADT1-7 (parental) (antibody, IgG1, V domains shown, IgG1; also called E07; 1245_P01_E07) VH: QVQLVESGGGLVKPGGSLRLSCAASGFTFSDYYMSWIRQAPGKGLEWVSYISSSGSTIYYADSVKGRFTISRDNAKNSLYLQMNSLRAEDTAVYYCARVDYADAFDIWGQGTLVTVSS VL: DIQMTQSPSSLSASVGDRVTIACRAGQSIGTYLNWYQQKPGKAPKLLIYVASSLQSGVPSRFSGSGSGTEFTLTISSLQPEDFATYYCQQSYSTLLTFGRGTKVEIK	226	> 100	38.1	–	–	–
ADT1-7-20 (antibody, IgG1, V domains shown, IgG1) VH: EVQLVESGGGLVKPGGSLRLSCAASGFTFSDYYMSWIRQAPGKGLEWVSYISSSGSTIYYADSVKGRFTISRDNAKNSLYLQMNSLRAEDTAVYYCARVDYQEAFDIWGQGTLVTVSS VL: DIQMTQSPSSLSASVGDRVTIACRAGQSIGTYLNWYQQKPGKAPKLLIYVASSLQSGVPSRFSGSGSGTEFTLTISSLQPEDFATYYCQQSYSGLDTFGRGTKVEIK	2.68	37.2	4.99	–	–	–
ADT1-7-61 (antibody, IgG1, V domains shown, IgG1) VH: EVQLVESGGGLVKPGGSLRLSCAASGFTFSDYYMSWIRQAPGKGLEWVSYISSSGSTIYYADSVKGRFTISRDNAKNSLYLQMNSLRAEDTAVYYCARDDYDDAFDIWGQGTLVTVSS VL: DIQMTQSPSSLSASVGDRVTIACRAGQSIGTYLNWYQQKPGKAPKLLIYVASSLQSGVPSRFSGSGSGTEFTLTISSLQPEDFATYYCQQSASELLTFGRGTKVEIK	196	93	1.04	–	–	–
ADT1-7-3 (antibody, IgG1, V domains shown, IgG1) VH: EVQLVESGGGLVKPGGSLRLSCAASGFTFSDYYMSWIRQAPGKGLEWVSYISSSGSTIYYADSVKGRFTISRDNAKNSLYLQMNSLRAEDTAVYYCARVSYAEAFDIWGQGTLVTVSS VL: DIQMTQSPSSLSASVGDRVTIACRAGQSIGTYLNWYQQKPGKAPKLLIYVASSLQSGVPSRFSGSGSGTEFTLTISSLQPEDFATYYCQQSYSGLDTFGRGTKVEIK	0.952	5.15	3.78	–	–	–
ADT1-4-6/ADT3-2 (bispecific antibody, V domains shown, mAb2, human IgG1; light constant region not tied; also called ADT1-4-6 × LEE) VH: EVQLQQSGPGLVKPSQTLSLTCAISGDSVSSKSAAWNWIRQSPSRGLEWLGRTYYRSKWSTDYAASVKSRITINPDTSKNQLSLQLNSVTPEDTAVYYCARTWAGYPDVWGQGTLVTVSS VL: DIQMTQSPPALSASVGDRVTITCRASQDINDWLAWYQHKPGKAPKLLIYDASSLESGVPLRFSGSGSGTEFTLTISSLQPDDFATYYCQQKYKTPQVTFGQGTRLEIK	–	–	–	0.655	–	EC50 [5]: 0.279 nM; EC95 [5]: 2.77 nM; Kd [6]: 1.26 nM
ADT1-4/ADT3-1 (bispecific antibody, human IgG1, V domains shown, mAb2; also called G04 × FS1-67; G04 FS1-67) VH: QVQLQQSGPGLVKPSQTLSLTCAISGDSVSSKSAAWNWIRQSPSRGLEWLGRTYYRSKWSTDYAASVKSRITINPDTSKNQLSLQLNSVTPEDTAVYYCARTWSGYVDVWGQGTLVTVSS VL: DIQMTQSPPALSASVGDRVTITCRASQDINDWLAWYQHKPGKAPKLLIYDASSLESGVPSRFSGSGSGTEFTLTISSLQPDDFATYYCQQSYSTPQVTFGQGTRLEIKR	–	–	–	1.14	152	–
ADT1-4-138/ADT3-2 (bispecific antibody, V domains shown, mAb2, human IgG1; light constant region not tied; also called ADT1-4-138 × LEE; ADT1-4-138xADT3-2) VH: EVQLQQSGPGLVKPSQTLSLTCAISGDSVSSKSAAWNWIRQSPSRGLEWLGRTYYRSKWSTDYAASVKSRITINPDTSKNQLSLQLNSVTPEDTAVYYCARTWADYVDVWGQGTLVTVSS VL: DIQMTQSPPALSASVGDRVTITCRASQDINDWLAWYQHKPGKAPKLLIYDASSLESGVPSRFSGSGSGTEFTLTISSLQPDDFATYYCQQRYSTDQVTFGQGTRLEIK	–	–	–	2.78	–	EC50 [5]: 0.209 nM; EC95 [5]: 2.25 nM; Kd [6]: 18.3 nM
ADT1-4-2/ADT3-6 (bispecific antibody, mAb2; also called ADT1-4-2xLEE2) heavy: EVQLQQSGPGLVKPSQTLSLTCAISGDSVSSKSAAWNWIRQSPSRGLEWLGRTYYRSKWSTDYAASVKSRITINPDTSKNQLSLQLNSVTPEDTAVYYCARTWVGYVDRWGQGTLVTVSSASTKGPSVFPLAPSSKSTSGGTAALGCLVKDYFPEPVTVSWNSGALTSGVHTFPAVLQSSGLYSLSSVVTVPSSSLGTQTYICNVNHKPSNTKVDKKVEPKSCDKTHTCPPCPAPELAGAPSVFLFPPKPKDTLMISRTPEVTCVVVDVSHEDPEVKFNWYVDGVEVHNAKTKPREEQYNSTYRVVSVLTVLHQDWLNGKEYKCKVSNKALPAPIEKTISKAKGQPREPQVYTLPPSRDELEEGPVSLTCLVKGFYPSDIAVEWESNGQPENNYKTTPPVLDSDGSFFLYSKLTVSYWRWYKGNVFSCSVMHEALHNHYTQKSLSLSPG light: DIQMTQSPPALSASVGDRVTITCRASQDINDWLAWYQHKPGKAPKLLIYDASSLESGVPLRFSGSGSGTEFTLTISSLQPDDFATYYCQQKYSAPQVTFGQGTRLEIKRTVAAPSVFIFPPSDEQLKSGTASVVCLLNNFYPREAKVQWKVDNALQSGNSQESVTEQDSKDSTYSLSSTLTLSKADYEKHKVYACEVTHQGLSSPVTKSFNRGEC	–	–	–	19.2	0.818	–
ADT1-4-2/ADT3-3 (bispecific antibody, human IgG1, kappa, also called ADT1-4-2xFS1-65) heavy: EVQLQQSGPGLVKPSQTLSLTCAISGDSVSSKSAAWNWIRQSPSRGLEWLGRTYYRSKWSTDYAASVKSRITINPDTSKNQLSLQLNSVTPEDTAVYYCARTWVGYVDRWGQGTLVTVSSASTKGPSVFPLAPSSKSTSGGTAALGCLVKDYFPEPVTVSWNSGALTSGVHTFPAVLQSSGLYSLSSVVTVPSSSLGTQTYICNVNHKPSNTKVDKKVEPKSCDKTHTCPPCPAPELAGAPSVFLFPPKPKDTLMISRTPEVTCVVVDVSHEDPEVKFNWYVDGVEVHNAKTKPREEQYNSTYRVVSVLTVLHQDWLNGKEYKCKVSNKALPAPIEKTISKAKGQPREPQVYTLPPSRDELDEGGPVSLTCLVKGFYPSDIAVEWESTYGPENNYKTTPPVLDSDGSFFLYSKLTVSYWRWVKGNVFSCSVMHEALHNHYTQKSLSLSPG light: DIQMTQSPPALSASVGDRVTITCRASQDINDWLAWYQHKPGKAPKLLIYDASSLESGVPLRFSGSGSGTEFTLTISSLQPDDFATYYCQQKYSAPQVTFGQGTRLEIKRTVAAPSVFIFPPSDEQLKSGTASVVCLLNNFYPREAKVQWKVDNALQSGNSQESVTEQDSKDSTYSLSSTLTLSKADYEKHKVYACEVTHQGLSSPVTKSFNRGEC	–	–	–	1.35	0.464	–
ADT1-4-2/ADT3-1 (bispecific antibody, mAb2; also called ADT1-4-2xFS1-67) heavy: EVQLQQSGPGLVKPSQTLSLTCAISGDSVSSKSAAWNWIRQSPSRGLEWLGRTYYRSKWSTDYAASVKSRITINPDTSKNQLSLQLNSVTPEDTAVYYCARTWVGYVDRWGQGTLVTVSSASTKGPSVFPLAPSSKSTSGGTAALGCLVKDYFPEPVTVSWNSGALTSGVHTFPAVLQSSGLYSLSSVVTVPSSSLGTQTYICNVNHKPSNTKVDKKVEPKSCDKTHTCPPCPAPELAGAPSVFLFPPKPKDTLMISRTPEVTCVVVDVSHEDPEVKFNWYVDGVEVHNAKTKPREEQYNSTYRVVSVLTVLHQDWLNGKEYKCKVSNKALPAPIEKTISKAKGQPREPQVYTLPPSRDETDDGPVSLTCLVKGFYPSDIAVEWESTYGPENNYKTTPPVLDSDGSFFLYSKLTVSYWRWYKGNVFSCSVMHEALHNHYTQKSLSLSPG light: DIQMTQSPPALSASVGDRVTITCRASQDINDWLAWYQHKPGKAPKLLIYDASSLESGVPLRFSGSGSGTEFTLTISSLQPDDFATYYCQQKYSAPQVTFGQGTRLEIKRTVAAPSVFIFPPSDEQLKSGTASVVCLLNNFYPREAKVQWKVDNALQSGNSQESVTEQDSKDSTYSLSSTLTLSKADYEKHKVYACEVTHQGLSSPVTKSFNRGEC	–	–	–	1.37	0.378	–
ADT1-4-2/ADT3-4 (bispecific antibody, mAb2; also called ADT1-4-2x747) heavy: EVQLQQSGPGLVKPSQTLSLTCAISGDSVSSKSAAWNWIRQSPSRGLEWLGRTYYRSKWSTDYAASVKSRITINPDTSKNQLSLQLNSVTPEDTAVYYCARTWVGYVDRWGQGTLVTVSSASTKGPSVFPLAPSSKSTSGGTAALGCLVKDYFPEPVTVSWNSGALTSGVHTFPAVLQSSGLYSLSSVVTVPSSSLGTQTYICNVNHKPSNTKVDKKVEPKSCDKTHTCPPCPAPELAGAPSVFLFPPKPKDTLMISRTPEVTCVVVDVSHEDPEVKFNWYVDGVEVHNAKTKPREEQYNSTYRVVSVLTVLHQDWLNGKEYKCKVSNKALPAPIEKTISKAKGQPREPQVYTLPPSRDETESGPVSLTCLVKGFYPSDIVVEWESKFGPENNYKTTPPVLDSDGSFFLYSKLTVSNLRWTKGHVFSCSVMHEALHNHYTQKSLSLSPG light: DIQMTQSPPALSASVGDRVTITCRASQDINDWLAWYQHKPGKAPKLLIYDASSLESGVPLRFSGSGSGTEFTLTISSLQPDDFATYYCQQKYSAPQVTFGQGTRLEIKRTVAAPSVFIFPPSDEQLKSGTASVVCLLNNFYPREAKVQWKVDNALQSGNSQESVTEQDSKDSTYSLSSTLTLSKADYEKHKVYACEVTHQGLSSPVTKSFNRGEC	–	–	–	2.35	0.511	–
